Consider one molecule from EP0946727B1 (GENENTECH, INC., dated 2007).

In experiment [1] the target is T1, rhesus CD11a (rhesus, UniProt H9Z8N3 26-1169).
T1 construct: whole, on cells; also called rhCD11a
T1 sequence: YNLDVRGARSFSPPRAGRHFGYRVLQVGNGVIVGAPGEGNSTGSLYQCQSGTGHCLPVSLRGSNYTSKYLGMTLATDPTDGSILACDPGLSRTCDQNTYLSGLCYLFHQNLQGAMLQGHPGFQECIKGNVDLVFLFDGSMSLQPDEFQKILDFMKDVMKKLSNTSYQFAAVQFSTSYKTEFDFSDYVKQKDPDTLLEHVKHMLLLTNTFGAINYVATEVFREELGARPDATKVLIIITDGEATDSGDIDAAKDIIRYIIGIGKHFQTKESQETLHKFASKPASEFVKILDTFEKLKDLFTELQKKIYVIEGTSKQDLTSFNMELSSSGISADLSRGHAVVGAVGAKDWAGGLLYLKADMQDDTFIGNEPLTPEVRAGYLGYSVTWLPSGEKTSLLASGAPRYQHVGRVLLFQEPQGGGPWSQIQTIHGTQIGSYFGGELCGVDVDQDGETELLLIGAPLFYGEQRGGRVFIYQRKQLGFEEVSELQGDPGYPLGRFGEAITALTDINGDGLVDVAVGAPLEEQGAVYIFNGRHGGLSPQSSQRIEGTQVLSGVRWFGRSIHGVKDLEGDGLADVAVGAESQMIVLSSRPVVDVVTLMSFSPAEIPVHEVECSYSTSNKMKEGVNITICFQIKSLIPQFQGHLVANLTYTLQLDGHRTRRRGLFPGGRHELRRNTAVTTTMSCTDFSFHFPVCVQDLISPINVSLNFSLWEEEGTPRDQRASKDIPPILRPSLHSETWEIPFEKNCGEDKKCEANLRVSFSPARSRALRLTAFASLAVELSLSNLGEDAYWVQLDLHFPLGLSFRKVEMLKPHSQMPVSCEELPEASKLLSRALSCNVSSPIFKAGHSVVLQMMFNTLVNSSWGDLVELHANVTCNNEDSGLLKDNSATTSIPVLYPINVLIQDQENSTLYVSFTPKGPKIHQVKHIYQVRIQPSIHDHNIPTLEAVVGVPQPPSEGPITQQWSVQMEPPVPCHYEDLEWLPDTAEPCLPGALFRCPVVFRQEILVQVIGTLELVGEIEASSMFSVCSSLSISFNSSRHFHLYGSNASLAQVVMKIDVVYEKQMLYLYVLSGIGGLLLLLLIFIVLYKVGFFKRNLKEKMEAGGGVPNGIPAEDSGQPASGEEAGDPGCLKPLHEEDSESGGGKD
The experiment is described as follows: cell binding, rhesus CD11a.

Experiment [2] concerns the target T1, rhesus CD11a. The experiment is described as follows: cell-based or functional assay.
Experiment [3] has as its target T1, rhesus CD11a. In words: saturation binding, Kd(app).
In experiment [4] the target is T1, rhesus CD11a. In words: blocking of rhesus lymphocyte adhesion to human keratinocytes.
The target in experiment [5] is T1, rhesus CD11a. The experiment is described as above. This is another data set of the same source.
In experiment [6] the target is T2, rhesus-human chimeric CD11a (human CD11a with a rhesus I-domain) (human, UniProt P20701 26-1170).
T2 construct: whole, on cells; also called Rh/HuCD11a
T2 sequence (looked up): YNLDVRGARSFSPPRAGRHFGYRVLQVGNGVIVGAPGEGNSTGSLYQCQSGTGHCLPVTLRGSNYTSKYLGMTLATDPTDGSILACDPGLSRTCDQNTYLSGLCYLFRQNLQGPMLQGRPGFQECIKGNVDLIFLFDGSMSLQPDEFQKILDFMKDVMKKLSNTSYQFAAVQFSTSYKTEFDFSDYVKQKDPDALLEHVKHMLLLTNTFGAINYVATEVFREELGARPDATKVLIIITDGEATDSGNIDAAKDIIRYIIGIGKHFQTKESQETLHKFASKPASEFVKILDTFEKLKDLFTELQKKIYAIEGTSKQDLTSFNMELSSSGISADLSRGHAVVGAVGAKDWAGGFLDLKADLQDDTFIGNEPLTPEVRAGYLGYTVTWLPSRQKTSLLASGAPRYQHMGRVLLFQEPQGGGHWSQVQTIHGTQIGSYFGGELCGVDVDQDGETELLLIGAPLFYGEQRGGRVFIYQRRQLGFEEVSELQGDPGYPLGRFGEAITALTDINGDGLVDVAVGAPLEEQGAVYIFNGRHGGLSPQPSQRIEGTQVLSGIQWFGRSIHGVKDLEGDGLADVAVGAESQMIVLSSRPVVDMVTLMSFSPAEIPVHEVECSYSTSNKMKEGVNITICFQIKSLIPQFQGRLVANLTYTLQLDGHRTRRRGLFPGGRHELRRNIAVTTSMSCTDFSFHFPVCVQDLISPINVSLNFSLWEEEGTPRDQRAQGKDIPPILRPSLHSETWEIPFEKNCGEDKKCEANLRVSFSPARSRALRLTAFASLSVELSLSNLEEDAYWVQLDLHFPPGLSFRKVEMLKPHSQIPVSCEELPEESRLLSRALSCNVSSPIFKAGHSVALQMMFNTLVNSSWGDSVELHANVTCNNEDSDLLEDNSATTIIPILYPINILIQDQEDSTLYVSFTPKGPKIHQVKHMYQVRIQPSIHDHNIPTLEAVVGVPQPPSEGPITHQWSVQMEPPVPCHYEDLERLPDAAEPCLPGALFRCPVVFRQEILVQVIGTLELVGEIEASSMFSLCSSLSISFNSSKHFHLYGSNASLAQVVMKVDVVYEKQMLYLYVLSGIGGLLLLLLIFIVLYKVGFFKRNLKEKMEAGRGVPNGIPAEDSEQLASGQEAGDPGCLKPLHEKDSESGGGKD
In words: blocking of adhesion of Rh/HuCD11a-293 cells to human keratinocytes.

Experiment [7] addresses T1, rhesus CD11a. In words: blocking of rhesus lymphocyte adhesion to recombinant human ICAM-1 on plates.
Experiment [8] has as its target T1, rhesus CD11a. Described as above. The source holds these as a separate data set.
For experiment [9], the target named is T2, rhesus-human chimeric CD11a (human …). The experiment is described as follows: blocking of adhesion of Rh/HuCD11a-transfected 293 cells to human keratinocytes.

B1: rhesus-binding MHM24 IgG1 (rhesusized antibody mutant) (antibody, V domains shown)
VH: EVQLVESGGGLVQPGGSLRLSCAASGYSFTGHWMNWVRQAPGKGLEWVGMIAPASSSTRYNQKFKDRFTISVDKSKNTLYLQMNSLRAEDTAVYYCARGIYFYGTTYFDYWGQGTLVTVSS
VL: DIQMTQSPSSLSASVGDRVTITCRASKTISKYLAWYQQKPGKAPKLLIYSGSTLQSGVPSRFSGSGSGTDFTLTISSLQPEDFATYYCQQHNEYPLTFGQGTKVEIKR
With B1, in the experiment with rhesus CD11a [1], the “fold improvement over the EC50 of HuIgG1 for rhesus CD11a” value was 240 to 415 fold. In the experiment with rhesus CD11a [1], the “fold weaker than the EC50 of HuIgG1 for human CD11a” value was 3 to 5 fold. In the experiment with rhesus CD11a [2], the “IC50, rhesus mixed lymphocyte response (MLR)” value stood at 23.4 nM. Further, in the experiment with rhesus CD11a [3], the “fold down of Kd from the Kd of HuIgG1 for human CD11a” value was roughly 26 fold. For the same molecule, the “fold less efficacious than MHM23” value in the experiment with rhesus CD11a [4] amounted to 74 fold; with rhesus CD11a [7], 4 fold. The IC50 with rhesus CD11a [5] stood at 119 nM; with rhesus CD11a [8], 5.3 nM; in experiment [9] it was 4.9 nM. Further, the “fold down from MHM23” value in [6] is 4 fold.
